This is an account of results in paper doi:10.1101/2025.07.11.664400 (bioRxiv, 2025).

Some results are limits rather than exact numbers.

For series [1], the target named is T1, RecBΔNucCD (Escherichia coli, UniProt P08394;P07648;P04993 1-929;1-1122;1-608). Briefly: ITC. For orientation: ITC needs no label: the signal is the heat of the interaction.
For series [2], the target named is T2, RecBCD (Escherichia coli, UniProt P08394;P07648;P04993 1-1180;1-1122;1-608). The experiment in a line: fluorescence competition.
Series [3] concerns the target T1, RecBΔNucCD. Briefly: fluorescence competition.
Series [4] deals with T1, RecBΔNucCD. The experiment in a line: ITC. This is another data set of the same source.
Series [5] concerns the target T1, RecBΔNucCD. The experiment in a line: fluorescence titration.
Series [6] addresses T2, RecBCD. The experiment in a line: fluorescence titration.
The target of series [7] is T1, RecBΔNucCD. The experiment in a line: fluorescence titration. This is another data set of the same source.
The target of another series is T3, RecB (E. coli, UniProt P08394 1-1180).
T3 sequence: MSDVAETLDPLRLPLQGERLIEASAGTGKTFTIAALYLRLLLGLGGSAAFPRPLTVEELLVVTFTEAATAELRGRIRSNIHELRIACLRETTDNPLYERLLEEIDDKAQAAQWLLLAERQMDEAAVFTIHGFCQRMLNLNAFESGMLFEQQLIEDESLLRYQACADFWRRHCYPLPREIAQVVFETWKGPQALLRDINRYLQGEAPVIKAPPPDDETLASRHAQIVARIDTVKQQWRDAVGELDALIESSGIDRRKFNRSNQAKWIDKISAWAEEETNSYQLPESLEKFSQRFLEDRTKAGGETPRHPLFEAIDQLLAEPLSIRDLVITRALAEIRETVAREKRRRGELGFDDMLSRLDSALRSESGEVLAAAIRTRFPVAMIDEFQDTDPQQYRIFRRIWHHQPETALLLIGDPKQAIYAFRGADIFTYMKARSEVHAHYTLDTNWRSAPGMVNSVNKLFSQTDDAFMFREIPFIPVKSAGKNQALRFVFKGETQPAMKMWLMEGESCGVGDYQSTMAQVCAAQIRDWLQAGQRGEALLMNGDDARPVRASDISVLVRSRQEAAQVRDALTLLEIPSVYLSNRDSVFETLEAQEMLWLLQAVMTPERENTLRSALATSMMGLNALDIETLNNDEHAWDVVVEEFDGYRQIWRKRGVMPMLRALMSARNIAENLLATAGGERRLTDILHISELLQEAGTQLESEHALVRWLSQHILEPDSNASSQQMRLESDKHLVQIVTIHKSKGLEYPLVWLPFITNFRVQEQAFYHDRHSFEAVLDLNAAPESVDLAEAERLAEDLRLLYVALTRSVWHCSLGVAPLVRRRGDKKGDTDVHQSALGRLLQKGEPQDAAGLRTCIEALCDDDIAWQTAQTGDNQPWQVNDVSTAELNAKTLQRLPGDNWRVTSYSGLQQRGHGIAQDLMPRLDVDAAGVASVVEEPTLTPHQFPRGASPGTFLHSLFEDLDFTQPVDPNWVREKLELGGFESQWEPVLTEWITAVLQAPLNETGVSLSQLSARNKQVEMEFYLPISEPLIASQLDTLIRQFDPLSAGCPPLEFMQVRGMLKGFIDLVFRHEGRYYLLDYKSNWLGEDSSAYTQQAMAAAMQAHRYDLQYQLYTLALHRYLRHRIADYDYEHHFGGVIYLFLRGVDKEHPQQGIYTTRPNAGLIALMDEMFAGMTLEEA
The experiment in a line: AUC.

B1: Blunt ended DNA (dsDNA)
DNA 1: CCATGGCTCCTGAGCTAGCTGCAGTAGCCTAAAGGATGAAACTAGGATCTTATGCTCCAG
DNA 2: CTGGAGCATAAGATCCTAGTTTCATCCTTTAGGCTACTGCAGCTAGCTCAGGAGCCATGG
On to B1, for which the Ka in the series with RecBΔNucCD [1] was 1.2e+07 M⁻¹; with RecBCD [2], 1.4e+07 M⁻¹; with RecBΔNucCD [3], 4.7e+07 M⁻¹; with RecBΔNucCD [4] it was > 1e+09 M⁻¹.

B2: Reference DNA (dsDNA)
DNA 1: CCATGGCTCCTGAGCTAGCTGCAGTAGCCTAAAGGATGAAACTAGGATCTTATGCTCCAGTTTT
DNA 2: CTGGAGCATAAGATCCTAGTTTCATCCTTTAGGCTACTGCAGCTAGCTCAGGAGCCATGGTTTT
With B2, the Ka is > 2e+09 M⁻¹ with RecBΔNucCD [5], 3.2e+07 M⁻¹ with RecBCD [6] and 1.6e+08 M⁻¹ with RecBΔNucCD [7].

B3: RecC (natural protein)
chain: MLRVYHSNRLDVLEALMEFIVERERLDDPFEPEMILVQSTGMAQWLQMTLSQKFGIAANIDFPLPASFIWDMFVRVLPEIPKESAFNKQSMSWKLMTLLPQLLEREDFTLLRHYLTDDSDKRKLFQLSSKAADLFDQYLVYRPDWLAQWETGHLVEGLGEAQAWQAPLWKALVEYTHQLGQPRWHRANLYQRFIETLESATTCPPGLPSRVFICGISALPPVYLQALQALGKHIEIHLLFTNPCRYYWGDIKDPAYLAKLLTRQRRHSFEDRELPLFRDSENAGQLFNSDGEQDVGNPLLASWGKLGRDYIYLLSDLESSQELDAFVDVTPDNLLHNIQSDILELENRAVAGVNIEEFSRSDNKRPLDPLDSSITFHVCHSPQREVEVLHDRLLAMLEEDPTLTPRDIIVMVADIDSYSPFIQAVFGSAPADRYLPYAISDRRARQSHPVLEAFISLLSLPDSRFVSEDVLALLDVPVLAARFDITEEGLRYLRQWVNESGIRWGIDDDNVRELELPATGQHTWRFGLTRMLLGYAMESAQGEWQSVLPYDESSGLIAELVGHLASLLMQLNIWRRGLAQERPLEEWLPVCRDMLNAFFLPDAETEAAMTLIEQQWQAIIAEGLGAQYGDAVPLSLLRDELAQRLDQERISQRFLAGPVNICTLMPMRSIPFKVVCLLGMNDGVYPRQLAPLGFDLMSQKPKRGDRSRRDDDRYLFLEALISAQQKLYISYIGRSIQDNSERFPSVLVQELIDYIGQSHYLPGDEALNCDESEARVKAHLTCLHTRMPFDPQNYQPGERQSYAREWLPAASQAGKAHSEFVQPLPFTLPETVPLETLQRFWAHPVRAFFQMRLQVNFRTEDSEIPDTEPFILEGLSRYQINQQLLNALVEQDDAERLFRRFRAAGDLPYGAFGEIFWETQCQEMQQLADRVIACRQPGQSMEIDLACNGVQITGWLPQVQPDGLLRWRPSLLSVAQGMQLWLEHLVYCASGGNGESRLFLRKDGEWRFPPLAAEQALHYLSQLIEGYREGMSAPLLVLPESGGAWLKTCYDAQNDAMLDDDSTLQKARTKFLQAYEGNMMVRGEGDDIWYQRLWRQLTPETMEAIVEQSQRFLLPLFRFNQS
On to B3, for which, in the series with RecB, the binding result is on record as “binds”.
